Laboratory results from patent US20230002480A1.

Experiments:
Test in all cases: cell-based or functional assay
[1] = target: HIV-1 Env of pseudovirus 7030102001E5(Rev-) (HIV-1)
[2] = target: HIV-1 Env of pseudovirus AC10.0.29 (HIV-1)
[3] = target: HIV-1 Env of pseudovirus R2184.c04 (HIV-1)
[4] = target: HIV-1 Env of pseudovirus 6240_08_TA5_4622 (HIV-1)
[5] = target: HIV-1 Env of pseudovirus CNE17 (HIV-1)
[6] = target: HIV-1 Env of pseudovirus RHPA4259.7 (HIV-1)
[7] = target: HIV-1 Env of pseudovirus HIV-001428-2.42 (HIV-1)
[8] = target: HIV-1 Env of pseudovirus WITO4160.33 (HIV-1)
[9] = target: HIV-1 Env of pseudovirus X1254_c3 (HIV-1)
[10] = target: HIV-1 Env of pseudovirus BJOX028000.10.3 (HIV-1)
[11] = target: HIV-1 Env of pseudovirus Ce1176_A3 (HIV-1)
[12] = target: HIV-1 Env of pseudovirus HIV-16845-2.22 (HIV-1)
[13] = target: HIV-1 Env of pseudovirus CAP210.2.00.E8 (HIV-1)
[14] = target: HIV-1 Env of pseudovirus ZM247v1(Rev-) (HIV-1)
[15] = target: HIV-1 Env of pseudovirus Q259.d2.17 (HIV-1)
[16] = target: HIV-1 Env of pseudovirus ZM249M.PL1 (HIV-1)
[17] = target: HIV-1 Env of pseudovirus 6535.3 (HIV-1)
[18] = target: HIV-1 Env of pseudovirus TRO.11 (HIV-1)
[19] = target: HIV-1 Env of pseudovirus Ce1172_H1 (HIV-1)
[20] = target: HIV-1 Env of pseudovirus Ce703010054_2A2 (HIV-1)
[21] = target: HIV-1 Env of pseudovirus Ce2060_G9 (HIV-1)
[22] = target: HIV-1 Env of pseudovirus CNE21 (HIV-1)
[23] = target: HIV-1 Env of pseudovirus WEAU_d15_410_787 (HIV-1)
[24] = target: HIV-1 Env of pseudovirus CNE52 (HIV-1)
[25] = target: HIV-1 Env of pseudovirus Ce0393_C3 (HIV-1)
[26] = target: HIV-1 Env of pseudovirus Q461.e2 (HIV-1)
[27] = target: HIV-1 Env of pseudovirus REJO4541.67 (HIV-1)
[28] = target: HIV-1 Env of pseudovirus T255-34 (HIV-1)
[29] = target: HIV-1 Env of pseudovirus CAAN5342.A2 (HIV-1)
[30] = target: HIV-1 Env of pseudovirus MS208.A1 (HIV-1)

## N49P7.1 (antibody)
[1]
  neutralization IC50: 0.11 µg/mL
  neutralization IC80: 0.498 µg/mL
  neutralization MPI: 100
[2]
  neutralization IC50: 5.31 µg/mL
  neutralization IC80: 46.8 µg/mL
  neutralization MPI: 85
[3]
  neutralization IC50: 0.018 µg/mL
  neutralization IC80: 0.04 µg/mL
  neutralization MPI: 100
[4]
  neutralization IC50: 0.509 µg/mL
  neutralization IC80: 1.95 µg/mL
  neutralization MPI: 100
[5]
  neutralization IC50: 0.254 µg/mL
  neutralization IC80: 0.86 µg/mL
  neutralization MPI: 100
[6]
  neutralization IC50: 0.108 µg/mL
  neutralization IC80: 0.292 µg/mL
  neutralization MPI: 100
[7]
  neutralization IC50: 0.009 µg/mL
  neutralization IC80: 0.029 µg/mL
  neutralization MPI: 100
[8]
  neutralization IC50: 0.121 µg/mL
  neutralization IC80: 0.326 µg/mL
  neutralization MPI: 100
[9]
  neutralization IC50: 3.96 µg/mL
  neutralization IC80: 18.2 µg/mL
  neutralization MPI: 96
[10]
  neutralization IC50: 0.031 µg/mL
  neutralization IC80: 0.29 µg/mL
  neutralization MPI: 100
[11]
  neutralization IC50: 0.279 µg/mL
  neutralization IC80: 1.01 µg/mL
  neutralization MPI: 100
[12]
  neutralization IC50: 1.07 µg/mL
  neutralization IC80: 5.4 µg/mL
  neutralization MPI: 100
[13]
  neutralization IC50: 2.03 µg/mL
  neutralization IC80: 7.3 µg/mL
  neutralization MPI: 99
[14]
  neutralization IC50: 0.038 µg/mL
  neutralization IC80: 0.176 µg/mL
  neutralization MPI: 100
[15]
  neutralization IC50: 0.505 µg/mL
  neutralization IC80: 4.23 µg/mL
  neutralization MPI: 97
[16]
  neutralization IC50: 0.071 µg/mL
  neutralization IC80: 0.239 µg/mL
  neutralization MPI: 100
[17]
  neutralization IC50: 0.224 µg/mL
  neutralization IC80: 0.715 µg/mL
  neutralization MPI: 100
[18]
  neutralization IC50: 0.055 µg/mL
  neutralization IC80: 0.191 µg/mL
  neutralization MPI: 100
[19]
  neutralization IC50: 17.1 µg/mL
  neutralization IC80: > 50 µg/mL
  neutralization MPI: 78
[20]
  neutralization IC50: 0.085 µg/mL
  neutralization IC80: 0.364 µg/mL
  neutralization MPI: 100
[21]
  neutralization IC50: 0.473 µg/mL
  neutralization IC80: 2.41 µg/mL
  neutralization MPI: 100
[22]
  neutralization IC50: 1.58 µg/mL
  neutralization IC80: 12.2 µg/mL
  neutralization MPI: 96
[23]
  neutralization IC50: 0.058 µg/mL
  neutralization IC80: 0.142 µg/mL
  neutralization MPI: 100
[24]
  neutralization IC50: 0.021 µg/mL
  neutralization IC80: 0.058 µg/mL
  neutralization MPI: 100
[25]
  neutralization IC50: 0.23 µg/mL
  neutralization IC80: 1.02 µg/mL
  neutralization MPI: 100
[26]
  neutralization IC50: 0.329 µg/mL
  neutralization IC80: 1.14 µg/mL
  neutralization MPI: 100
[27]
  neutralization IC50: 0.022 µg/mL
  neutralization IC80: 0.088 µg/mL
  neutralization MPI: 100
[28]
  neutralization IC50: 0.094 µg/mL
  neutralization IC80: 0.447 µg/mL
  neutralization MPI: 100
[29]
  neutralization IC50: 0.55 µg/mL
  neutralization IC80: 1.59 µg/mL
  neutralization MPI: 100

## PG16 (antibody)
[1]
  IC50, titer in TZM.bl cells: > 50 µg/mL
  IC80, titer in TZM.bl cells: > 50 µg/mL
[2]
  IC50, titer in TZM.bl cells: 0.023 µg/mL
  IC80, titer in TZM.bl cells: 0.417 µg/mL
[4]
  IC50, titer in TZM.bl cells: > 50 µg/mL
  IC80, titer in TZM.bl cells: > 50 µg/mL
[5]
  IC50, titer in TZM.bl cells: 0.029 µg/mL
  IC80, titer in TZM.bl cells: 0.132 µg/mL
[6]
  IC50, titer in TZM.bl cells: 0.375 µg/mL
  IC80, titer in TZM.bl cells: 3.92 µg/mL
[7]
  IC50, titer in TZM.bl cells: 0.039 µg/mL
  IC80, titer in TZM.bl cells: 0.25 µg/mL
[8]
  IC50, titer in TZM.bl cells: 0.002 µg/mL
  IC80, titer in TZM.bl cells: 0.012 µg/mL
[30]
  IC50, titer in TZM.bl cells: 0.002 µg/mL
  IC80, titer in TZM.bl cells: 0.004 µg/mL
[11]
  IC50, titer in TZM.bl cells: 0.003 µg/mL
  IC80, titer in TZM.bl cells: 0.011 µg/mL
[12]
  IC50, titer in TZM.bl cells: 3.13 µg/mL
  IC80, titer in TZM.bl cells: > 50 µg/mL
[13]
  IC50, titer in TZM.bl cells: 0.01 µg/mL
  IC80, titer in TZM.bl cells: 0.042 µg/mL
[14]
  IC50, titer in TZM.bl cells: 0.016 µg/mL
  IC80, titer in TZM.bl cells: 0.189 µg/mL
[15]
  IC50, titer in TZM.bl cells: 0.065 µg/mL
  IC80, titer in TZM.bl cells: 45.9 µg/mL
[16]
  IC50, titer in TZM.bl cells: 0.127 µg/mL
  IC80, titer in TZM.bl cells: 18.1 µg/mL
[17]
  IC50, titer in TZM.bl cells: 0.653 µg/mL
  IC80, titer in TZM.bl cells: > 50 µg/mL
[18]
  IC50, titer in TZM.bl cells: 1.92 µg/mL
  IC80, titer in TZM.bl cells: 49.6 µg/mL
[19]
  IC50, titer in TZM.bl cells: 0.007 µg/mL
  IC80, titer in TZM.bl cells: 0.037 µg/mL
[20]
  IC50, titer in TZM.bl cells: 0.008 µg/mL
  IC80, titer in TZM.bl cells: 0.053 µg/mL
[21]
  IC50, titer in TZM.bl cells: 0.075 µg/mL
  IC80, titer in TZM.bl cells: 1.71 µg/mL
[22]
  IC50, titer in TZM.bl cells: 0.007 µg/mL
  IC80, titer in TZM.bl cells: 0.026 µg/mL
[23]
  IC50, titer in TZM.bl cells: 0.435 µg/mL
  IC80, titer in TZM.bl cells: > 50 µg/mL
[24]
  IC50, titer in TZM.bl cells: 0.009 µg/mL
  IC80, titer in TZM.bl cells: 0.026 µg/mL
[25]
  IC50, titer in TZM.bl cells: 0.002 µg/mL
  IC80, titer in TZM.bl cells: 0.006 µg/mL
[26]
  IC50, titer in TZM.bl cells: 1.75 µg/mL
  IC80, titer in TZM.bl cells: > 50 µg/mL
[27]
  IC50, titer in TZM.bl cells: 0.039 µg/mL
  IC80, titer in TZM.bl cells: 13.4 µg/mL
[29]
  IC50, titer in TZM.bl cells: 1.83 µg/mL
  IC80, titer in TZM.bl cells: 33 µg/mL
